The results in this text go back to patent US20170137509A1 (AFFIRIS, published 2017).

By Kd is commonly meant the free concentration of one partner at which half of the binding sites on the other are occupied at equilibrium, for simple one-to-one binding. A lower Kd goes with a tighter complex. One may read the koff as a measure of how fast the partners let go of each other.

The target of test [1] is T1, biotinylated peptide ligand representing MmpOpn (SPR). Description: SPR (Biacore 2000), biotinylated peptide on streptavidin chip, mAb injected at 2 ug/ml. The procedure: (§1) Binding analyses were performed on a Biacore 2000. The different biotinylated peptide ligands representing the different Opn products were immobilized on a streptavidin chip in one flow cell respectively, with a flow rate of 30 μl/min. The fourth flow cell is a reference cell without peptide. The peptides were dissolved in a DMSO solution and further diluted in HBS buffer (0.01M Hepes, 0.1M NaCl, 0.004M EDTA, 0.05% P20, pH=7.4). After immobilization, the chips in each flow cell were saturated with 1 μM D-Biotin. As a control, an unspecific serum was injected through all cells. The flow rate of the antibodies was 30 μl/min at a concentration of 2 μg/ml, volume injected 100 μl. The dissociation time was set at 500 sec. The chips were regenerated with 60 μl of 50 mM HCl. Off-rate values and KD values were calculated using the Biocore SPR software.
(§2) In order to define the binding strength of selected mAbs against their individual targets SPR analysis was performed using peptides representing the different Opn products. […] Thus in a situation where multiple washing steps are included (e.g. in the used functional cell based adhesion assay) the antibody will be washed away from its target. […] In a more physiological situation where antibody persistence is not influenced by steps depleting the antibody, mAb 4-4-2 is expected also display functional activity.
A general note: Surface plasmon resonance follows binding to a sensor surface in real time, without labels.

For the next test, the target named is T2, full length Opn (flOpn) (human, UniProt P10451 17-314).
T2 construct: Recombinant, expressed in HEK293 c18 cells as 'Strep-314 AA (full length Opn)-6xHis'; ELISA and Western blot also used PeproTech Cat#120-35 as control, and Western lanes 1-4 hold full length Opn proteins with different tag systems; also called Strep-314 AA (full length Opn)-6xHis; full length osteopontin; not shown: N-terminal OneStrep-tag
Description: ELISA on plates coated with recombinant human Opn, HRP anti-mouse IgG, OD 405 nm. The procedure: (§3) ELISA plates (Nunc, Cat#439454) were coated with 1 μg/ml recombinant human Opn proteins (home-made or from PeproTech, Cat#120-35 as control) in 100 mM NaHCO3 pH=9,2 and blocked with 1% BSA in 1×PBS. Bound mouse anti-human monoclonal antibodies (BioGenes, 1 μg/ml) and the mouse serum used as positive control were detected using a HRP-conjugated goat anti-mouse IgG antibody ([…], Cat#115-035-068, 0.2 μg/ml). ABTS (0.68 mM ABTS in 0.1 M citric acid, pH=4.3) and 0.1% hydrogen peroxide was used as a substrate for the horse radish peroxidase (HRP). The substrate reaction was stopped by adding 1% SDS solution to the wells. The absorbance was read at 405 nm using a microplate reader (TECAN Sunrise).
(An ELISA detects its analyte on a solid surface through an enzyme-linked reagent.)

Test [2] addresses T1, biotinylated peptide ligand …. Description: SPR (Biacore 2000), biotinylated peptide on streptavidin chip, mAb injected at 2 ug/ml; one value printed for 'ThrOpn and MmpOpn'.
Test [3] has as its target T3, biotinylated peptide ligand representing ThrOpn (SPR). Described as above.
Test [4] deals with T3, biotinylated peptide ligand …. Put plainly: SPR (Biacore 2000), biotinylated peptide on streptavidin chip, mAb injected at 2 ug/ml. The procedure: as §1, §2
Test [5] concerns the target T4, matrix-metalloproteinase-truncated Opn (MmpOpn) (human, UniProt P10451 17-166, limits assumed).
T4 construct: Recombinant, expressed in HEK293 c18 cells; stop codon after 166 AA; also called 1-Opn-166; 6xHis-166 AA (N-terminal MMP-cleaved Opn)
Put plainly: ELISA on plates coated with recombinant human Opn, HRP anti-mouse IgG, OD 405 nm. The procedure:
as §3

T2 sequence (P10451 other isoform, or with tags, fused parts or gaps): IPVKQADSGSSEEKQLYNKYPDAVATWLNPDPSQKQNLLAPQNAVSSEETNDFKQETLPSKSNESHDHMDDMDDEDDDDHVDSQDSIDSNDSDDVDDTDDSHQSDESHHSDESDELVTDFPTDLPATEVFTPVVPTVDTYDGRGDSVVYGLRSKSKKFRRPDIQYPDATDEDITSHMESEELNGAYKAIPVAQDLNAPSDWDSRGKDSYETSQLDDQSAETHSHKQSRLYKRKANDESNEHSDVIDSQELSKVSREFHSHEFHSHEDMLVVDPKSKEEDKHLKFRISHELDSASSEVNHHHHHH
T4 sequence (P10451 other isoform, or with tags, fused parts or gaps limits assumed): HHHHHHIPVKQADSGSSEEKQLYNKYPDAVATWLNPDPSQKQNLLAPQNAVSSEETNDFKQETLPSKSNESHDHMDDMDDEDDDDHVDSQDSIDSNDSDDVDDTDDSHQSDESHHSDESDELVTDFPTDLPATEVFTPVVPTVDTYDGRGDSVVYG

B1: mAb 7-5-4 (antibody, V domains shown)
VH: EVQLVETGGGLVQPKGALRLSCAVSGITFNTNGMNWVRQAPGRGLEWVARVRSKDYNFATYYADSVKDRFTISRDDSQSMLYLQMNNLRTEDTAMYYCVRPDYYGSSFAYWGQGTLVSVSA
VL: DVLMTQTPLSLPVSLGDQASISCRSSQSIVHSNGNTYLEWYLQKPGQSPKLLIYKVSNRFFGVPDRFSGSGSGTDFTLKISRVEAEDLGVYYCFQGSHVPWTFGGGTKLEIKR
notes: also called Monoclonal Ab 7-5-4
Consider B1, for which, in test [1], the Kd came out at 1.12 nM and the koff is 8.89e-05 s⁻¹. The binding result in the test with full length Opn (flOpn) is on record as “no binding (tested: 1,00 µg/ml)”.

B2: mAb 9-3-1 (antibody, IgG1, V domains shown)
VH: EVQLVETGGGLVQPKGALRLSCAVSGITFNTNGMNWVRQAPGRGLEWVARVRSKDYNFATYYADSVKDRFTISRDDSQSMLYLQMNNLRTEDTAMYYCVRPDYYGSSFAYWGQGTLVSVSA
VL: DVLMTQTPLSLPVSLGDQASISCRSSQSIVHSNGNTYLEWYLQKPGQSPKLLIYKVSNRFFGVPDRFSGSGSGTDFTLKISRVEAEDLGVYYCFQGSHVPWTFGGGTKLEIKR
notes: tested as a separate clone; also called mAb CMI 9-3
Consider B2, for which, in test [1], the Kd was 0.97 nM and the off-rate (koff) was found to be 8.79e-05 s⁻¹. Besides, the binding result in the test with full length Opn (flOpn) is recorded as “no binding (tested: 1,00 µg/ml)”.

B3: mAb 21-5-4 (antibody, V domains shown)
VH: QVTLKESGPGMLKPSQTLSLTCSFSGFSLSTSGLGIGWIRQPSGKGLEWLAHISWDDSKYYNPSLKNRLTISKDTSRNQVFLKITNVGTADSATYFCARSGGGDSDWGQGTLVTVSA
VL: ANVLTQSPAIMSASPGEKVTMTCSANSSVNSIHWYQQKSSTSPKLWIYDTSKLASGVPGRFSGSGSGDSYSLTISSMEAEDVATYYCFQGSGYPLTFGGGTKLEIKR
notes: also called 21-5-4 mAb; Monoclonal Ab 21-5-4
As to B3, the Kd in test [2] and in test [3] was 0.84 nM in each case. Also, the koff in test [2] and in test [3] was 1e-05 s⁻¹ in each case.

B4: mAb 4-4-2 (antibody, V domains shown)
VH: QVTLKESGPGILQPSQTLSLTCSFSGFSLSTYGLGVSWIRQPSGKGLEWLAHIYWDDNKRYKSSLKSRLTISKDTSSNQVFLKITSVDTADTATYYCARGTSPGVSFPYWGQGTLVTVSA
VL: DIQMTQSPASLSASVGETVTITCRASENIYSYLAWYQQKQGKSPQFLVYNAKTLAEGVPSRFSGSGSGTQFSLKINSLQPEDFGSYYCQHHYGTPLTFGAGTKLELKR
notes: also called Monoclonal Ab 4-4-2
In test [4], B4 gave a dissociation constant Kd of 13.9 nM. In addition, the koff in test [4] came out at 0.00279 s⁻¹. The binding result (with full length Opn (flOpn); in test [5]) was “no binding (tested: 1,00 µg/ml)” in each case.
